# B1: Pistol ribozyme (parent)
# chain: GGGUCGUUGUUCCAUAAUCGCGUGGAUAUGGCACGCAAGUUUCUACCGGGCACCGUAAAUGUCCGACUGGAGCCGUUCGGGCGGCUAUAAACAGACCUCAGGCCCGAAGCGUGGCGGCACCUGCCGCCGGUGGUAAAAAAGAUCGGAAGAGCACACGUCU
# Variants of: B1
# Experiment: aptazyme ON/OFF ratio, guanine; higher = stronger switching; co-transcriptional cleavage with and without guanine
row,Variant,aptazyme ON/OFF ratio
1,U7C U8C G9C U11C C12A,1.22
2,U7C U8C G9C U11C C12U,1.32
3,U7C U8C G9C U11C C12G,1.24
4,U7C U8C G9U U10A U11A,2.27
5,U7C U8C G9U U10A U11C,1.16
6,U7C U8C G9U U10A U11G,1.34
7,U7C U8C G9U U10G U11G,1.21
8,U7C U8C G9U U10G U11A,1.32
9,U7C U8C G9U U10G U11C,1.39
10,U7C U8C G9C U11G C12A C13G,1.1
11,U7C U8C G9C U11G C12A C13A,1.13
12,U7C U8C G9C U11G C12A C13U,1.09
13,U7C U8C G9U U10G U11A C12G C13U,1.08
14,U7C U8C G9U U10G U11A C12G C13G,1.18
15,U7C U8C G9U U10G U11A C12G C13A,1.06
16,U7C U8C G9C U10C U11G C13G,1.19
17,U7C U8C G9C U10C U11G C13U,1.21
18,U7C U8C G9C U10C U11G C13A,1.33
19,U7C U8C G9U U10C U11C C12G,1.06
20,U7C U8C G9U U10C U11C C12A,1.22
21,U7C U8C G9U U10C U11C C12U,1.23
22,U7C U8C G9U U10C U11A C12U C13A,1.13
23,U7C U8C G9U U10C U11A C12U C13U,1.09
24,U7C U8C G9U U10C U11A C12U C13G,1.14

row,Variant,aptazyme ON/OFF ratio
1,U7C U8C G9C U10G C12U,1.2
2,U7C U8C G9C U10G C12G,1.1
3,U7C U8C G9C U10G C12A,1.1
4,U7C U8C G9C U11G C12G C13U,1.1
5,U7C U8C G9C U11G C12G C13A,1.1
6,U7C U8C G9C U11G C12G C13G,1.11
7,U7C U8C G9C U10C U11C C13G,1.12
8,U7C U8C G9C U10C U11C C13U,0.989
9,U7C U8C G9C U10C U11C C13A,1.06
10,U7C U8C G9C U11A C12G C13U,1.03
11,U7C U8C G9C U11A C12G C13G,1.07
12,U7C U8C G9C U11A C12G C13A,1.07
13,U7C U8C G9C U10G U11A C12A C13G,1.11
14,U7C U8C G9C U10G U11A C12A C13A,1.16
15,U7C U8C G9C U10G U11A C12A C13U,1.11
16,U7C U8C G9U U10C U11G C13G,1.3
17,U7C U8C G9U U10C U11G C13U,1.29
18,U7C U8C G9U U10C U11G C13A,1.07
19,U7C U8C G9U U10C U11C C12G C13U,1.05
20,U7C U8C G9U U10C U11C C12G C13G,1.18
21,U7C U8C G9U U10C U11C C12G C13A,1.05
22,U7C U8C G9U U10A U11A C13A,1.13
23,U7C U8C G9U U10A U11A C13U,1.22
24,U7C U8C G9U U10A U11A C13G,1.14

row,Variant,aptazyme ON/OFF ratio
1,U7C U8C G9U U10A U11A C12G C13G,1.19
2,U7C U8C G9U U10A U11A C12G C13U,1.11
3,U7C U8C G9U U10A U11A C12G C13A,1.03
4,U7C U8C G9C U10G U11G C12G,1.14
5,U7C U8C G9C U10G U11G C12A,1.11
6,U7C U8C G9C U10G U11G C12U,1.11
7,U7C U8C G9U U10A C12G C13G,1.12
8,U7C U8C G9U U10A C12G C13A,1.16
9,U7C U8C G9U U10A C12G C13U,1.08
10,U7C U8C G9U C12U C13A,1.06
11,U7C U8C G9U C12U C13U,1.3
12,U7C U8C G9U C12U C13G,1.02
13,U7C U8C G9U U10A U11C C12U C13A,1.16
14,U7C U8C G9U U10A U11C C12U C13G,1.14
15,U7C U8C G9U U10A U11C C12U C13U,1.15
16,U7C U8C G9U C12G C13G,1.12
17,U7C U8C G9U C12G C13A,1.21
18,U7C U8C G9U C12G C13U,1.17
19,U7C U8C G9C U11G C12G,1.11
20,U7C U8C G9C U11G C12U,1.12
21,U7C U8C G9C U11G C12A,1.22
22,U7C U8C G9U U10G C12G C13U,1.09
23,U7C U8C G9U U10G C12G C13A,1.09
24,U7C U8C G9U U10G C12G C13G,1.07

row,Variant,aptazyme ON/OFF ratio
1,U7C U8C G9U U10A U11C C13G,1.07
2,U7C U8C G9U U10A U11C C13U,1.1
3,U7C U8C G9U U10A U11C C13A,1.15
4,U7C U8C G9U U10G C13A,1.21
5,U7C U8C G9U U10G C13U,1.39
6,U7C U8C G9U U10G C13G,1.12
7,U7C U8C G9C U10G U11A C13A,1.14
8,U7C U8C G9C U10G U11A C13U,1.09
9,U7C U8C G9C U10G U11A C13G,1.08
10,U7C U8C G9C U11C C12G C13U,1.01
11,U7C U8C G9C U11C C12G C13G,1.2
12,U7C U8C G9C U11C C12G C13A,1.09
13,U7C U8C G9U U10G U11C C12A C13G,1.07
14,U7C U8C G9U U10G U11C C12A C13U,1.1
15,U7C U8C G9U U10G U11C C12A C13A,1.18
16,U7C U8C G9U U10A U11C C12U,1.19
17,U7C U8C G9U U10A U11C C12G,1.36
18,U7C U8C G9U U10A U11C C12A,1.19
19,U7C U8C G9U U10A C12U,1.17
20,U7C U8C G9U U10A C12A,1.22
21,U7C U8C G9U U10A C12G,1.22
22,U7C U8C G9U,2.34
23,U7C U8C G9U U10A U11A C12G,1.2
24,U7C U8C G9U U10A U11A C12A,1.27

row,Variant,aptazyme ON/OFF ratio
1,U7C U8C G9U U10A U11A C12U,1.28
2,U7C U8C G9C U11C C12U C13U,1.11
3,U7C U8C G9C U11C C12U C13A,1.05
4,U7C U8C G9C U11C C12U C13G,1.08
5,U7C U8C G9C U10G U11C C12G C13A,1.14
6,U7C U8C G9C U10G U11C C12G C13U,1.11
7,U7C U8C G9C U10G U11C C12G C13G,1.1
8,U7C U8C G9U U10A U11C C12G C13A,1.17
9,U7C U8C G9U U10A U11C C12G C13G,1.19
10,U7C U8C G9U U10A U11C C12G C13U,1.15
11,U7C U8C G9U U10C U11A C12G C13G,1.15
12,U7C U8C G9U U10C U11A C12G C13U,1.09
13,U7C U8C G9U U10C U11A C12G C13A,1.13
14,U7C U8C G9U U10C U11A C13U,1.23
15,U7C U8C G9U U10C U11A C13A,1.2
16,U7C U8C G9U U10C U11A C13G,1.14
17,U7C U8C G9U U10G U11A C12A C13U,1.17
18,U7C U8C G9U U10G U11A C12A C13A,1.2
19,U7C U8C G9U U10G U11A C12A C13G,1.08
20,U7C U8C G9U U10G U11G C12A C13G,1.09
21,U7C U8C G9U U10G U11G C12A C13A,1.01
22,U7C U8C G9U U10G U11G C12A C13U,1.1
23,U7C U8C G9U U10G U11G C12A,1.13
24,U7C U8C G9U U10G U11G C12G,1.1

row,Variant,aptazyme ON/OFF ratio
1,U7C U8C G9U U10G U11G C12U,1.1
2,U7C U8C G9U U10G C12A C13G,1.1
3,U7C U8C G9U U10G C12A C13U,1.1
4,U7C U8C G9U U10G C12A C13A,1.06
5,U7C U8C G9C U10G C12A C13A,1.1
6,U7C U8C G9C U10G C12A C13U,1.1
7,U7C U8C G9C U10G C12A C13G,1.06
8,U7C U8C G9C U10G U11C C12U,1.19
9,U7C U8C G9C U10G U11C C12G,1.14
10,U7C U8C G9C U10G U11C C12A,1.09
11,U7C U8C G9U U10C,2.52
12,U7C U8C G9U U10A,1.13
13,U7C U8C G9U U10G,1.42
14,U7C U8C G9U U10A U11A C12U C13G,1.14
15,U7C U8C G9U U10A U11A C12U C13U,1.18
16,U7C U8C G9U U10A U11A C12U C13A,1.09
17,U7C U8C G9U U10A U11A C12A C13A,1.12
18,U7C U8C G9U U10A U11A C12A C13U,1.1
19,U7C U8C G9U U10A U11A C12A C13G,1.11
20,U7C U8C G9C U11G,1.24
21,U7C U8C G9C U11C,1.43
22,U7C U8C G9C U11A,1.71
23,U7C U8C G9U U10A U11G C13G,1.11
24,U7C U8C G9U U10A U11G C13A,1.12

row,Variant,aptazyme ON/OFF ratio
1,U7C U8C G9U U10A U11G C13U,1.31
2,U7C U8C G9U C12A,1.36
3,U7C U8C G9U C12U,1.61
4,U7C U8C G9U C12G,1.29
5,U7C U8C G9C U10C U11C C12U C13U,1.03
6,U7C U8C G9U C12A C13U,1.22
7,U7C U8C G9U C12A C13A,1.05
8,U7C U8C G9U C12A C13G,1.1
9,U7C U8C G9U U10A U11G C12A,1.2
10,U7C U8C G9U U10A U11G C12G,1.15
11,U7C U8C G9U U10A U11G C12U,1.11
12,U7C U8C G9U U10A C13U,1.27
13,U7C U8C G9U U10A C13A,1.14
14,U7C U8C G9U U10A C13G,1.09
15,U7C U8C G9U U10G U11G C12G C13U,1.06
16,U7C U8C G9U U10G U11G C12G C13A,1.1
17,U7C U8C G9U U10G U11G C12G C13G,1.06
18,U7C U8C G9C U10C U11G C12A C13A,1.08
19,U7C U8C G9C U10C U11G C12A C13G,1.04
20,U7C U8C G9C U10C U11G C12A C13U,1.09
21,U7C U8C G9U U10C U11C C13A,1.02
22,U7C U8C G9U U10C U11C C13G,1.1
23,U7C U8C G9U U10C U11C C13U,1.04

# Reference: the RNAGym collection of RNA variant scans (doi:10.1021/acssynbio.7b00057)
